Measured values reported in the supplement of paper PMC9732359.
± gives the uncertainty stated by the source.

Assay: protein stability index of a GFP-peptide fusion (yeast GPS) (PSI 1-4); higher = more stable; sorted into four equal gates, so the index is relative within each strain
Summary of the method: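 Mid-log yeast cultures in leucine-free medium, carrying a pooled plasmid library, were sorted into four equal gates by their GFP/Cherry fluorescence ratio. Each plasmid expressed Cherry along with GFP fused upstream of a tiled 17-residue yeast protein peptide. Plasmids recovered from each gate were PCR-amplified and Illumina-sequenced, with reads assigned to strains by barcodes. The protein stability index was obtained by summing each gate's read frequency weighted by its gate number.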

Row | Sequence | protein stability index (doa10∆) | protein stability index (pdr5∆) | protein stability index (san1∆) | protein stability index (ubr1∆)
1 | RVIVAGTLDINPDDDYG [FAS1] | 2.38 ± 0.069 | 2.87 ± 0.073 | 2.85 ± 0.06 | 2.51 ± 0.058
2 | RVMKSLSINEKDFVTMA [YCG1] | 2.35 ± 0.073 | 2.06 ± 0.052 | 2.1 ± 0.082 | 2.16 ± 0.042
3 | RVQLSGKIQENIPFWKH [SRP72] | 2.56 ± 0.071 | 2.44 ± 0.067 | 2.13 ± 0.07 | 2.4 ± 0.041
4 | RVRAESLHSNSFSLTVS [YJL039C/NUP192] | 1.74 ± 0.066 | 1.76 ± 0.072 | 1.43 ± 0.17 | 1.75 ± 0.064
5 | RVRTDDSVLLNRGNKKR [YML031W/NDC1] | 3.29 ± 0.13 | 3.4 ± 0.16 | 3.08 ± 0.058 | 3.3 ± 0.097
6 | RYDCSFCGKKTVKRGAA [RPL43A] | 2.07 ± 0.066 | 2.13 ± 0.071 | 2.21 ± 0.11 | 2.12 ± 0.053
7 | RYFFWLQEKNSGNLPLN [RPN13] | 3.04 ± 0.16 | 3 ± 0.085 | 2.81 ± 0.063 | 2.87 ± 0.11
8 | RYKPKSHLWEIDIPLDE [RPC37] | 2.81 ± 0.23 | – | 3.03 ± 0.22 | –
9 | SAAINNEDARAIFNNEF [RPN4] | – | 3.21 ± 0.23 | 3.04 ± 0.27 | –
10 | SADYEILYEIRALYTPF [YDL116W/NUP84] | 1.86 ± 0.073 | 2.21 ± 0.068 | 2.5 ± 0.07 | 2.06 ± 0.066
11 | SAINQYNRRQDKKNKRL [SNF2] | 3.13 ± 0.083 | 3.34 ± 0.082 | 3.23 ± 0.074 | 3.25 ± 0.087
12 | SAKNRVVILARAKALGI [RPL32] | 1.69 ± 0.05 | 1.74 ± 0.061 | 1.76 ± 0.081 | 2.05 ± 0.042
13 | SAKPTFSFSKSEEERKS [YOR098C/NUP1] | 1.96 ± 0.14 | – | 1.93 ± 0.24 | 2.79 ± 0.25
14 | SAKQTAPNNSNGGSEEE [MED7] | 3.45 ± 0.27 | – | – | –
15 | SALTSPTDSSKILQKRS [SIR3] | 2.99 ± 0.053 | 3.12 ± 0.054 | 2.92 ± 0.047 | 3.04 ± 0.039
16 | SAPPPALPHVEINQVSL [RGR1] | 2.46 ± 0.074 | 2.96 ± 0.11 | 2.48 ± 0.09 | 2.33 ± 0.052
17 | SATSKPAFSFGAKPEEK [YJL041W/NSP1] | 3.1 ± 0.15 | 3.31 ± 0.22 | 3.16 ± 0.11 | 2.55 ± 0.14
18 | SCGEEEFFSTNWLSIFN [REC8] | 3.33 ± 0.098 | 3.29 ± 0.073 | 3.34 ± 0.1 | 2.96 ± 0.087
19 | SCIAVMAGLMHFKKPDI [RRP45] | 2.02 ± 0.062 | 1.66 ± 0.053 | 1.77 ± 0.08 | 1.69 ± 0.035
20 | SDDQQEAVELVIGLDSE [YML103C/NUP188] | 2.9 ± 0.17 | 3.54 ± 0.12 | 3.39 ± 0.12 | 3.38 ± 0.045
21 | SDEEEVTEMSNNANVLG [BRR2] | 3.03 ± 0.065 | 3.1 ± 0.049 | 2.83 ± 0.063 | 3.17 ± 0.046
22 | SDFISKLEYPHTDVSSS [RPN3] | 2.56 ± 0.047 | 2.88 ± 0.054 | 2.82 ± 0.047 | 2.5 ± 0.045
23 | SDGIVLAAERKVTSTLL [PRE9] | 2.39 ± 0.1 | 1.58 ± 0.065 | – | 1.85 ± 0.075
24 | SDIPKTTVQVAEEAIVN [PRE4] | 2.92 ± 0.12 | 2.72 ± 0.09 | 1.81 ± 0.28 | 2.54 ± 0.091
25 | SDKTIVPTSIQTKRWPT [SIN4] | 2.32 ± 0.059 | 2.6 ± 0.055 | 2.35 ± 0.054 | 2.77 ± 0.048
26 | SDPLTVFSESCSNESFA [SNU114] | 2.83 ± 0.055 | 2.96 ± 0.057 | 2.58 ± 0.047 | 2.96 ± 0.038
27 | SDPQMKVFDTLTRFSHD [RPN1] | – | 2.84 ± 0.15 | 2.78 ± 0.18 | 2.94 ± 0.21

Row | Sequence | protein stability index (doa10∆) | protein stability index (pdr5∆) | protein stability index (san1∆) | protein stability index (ubr1∆)
28 | SDRECPKCHSRENVFFQ [RPB9] | 2.88 ± 0.062 | 2.74 ± 0.061 | 2.47 ± 0.058 | 2.79 ± 0.04
29 | SDVLLFQLPTTCVSMAP [RGR1] | 2.25 ± 0.047 | 1.83 ± 0.036 | 1.87 ± 0.05 | 1.77 ± 0.028
30 | SEDSMNVQLRDVIATEP [SMD3] | 2.94 ± 0.1 | 3.36 ± 0.098 | 3.09 ± 0.065 | 3.23 ± 0.039
31 | SEHVFDYFFYFLVLYDV [NUT1] | 2.12 ± 0.039 | 2.06 ± 0.033 | 2.26 ± 0.045 | 2.36 ± 0.034
32 | SEILIISSLMFDEEFDP [IRR1] | 2.5 ± 0.094 | 2.63 ± 0.095 | 2.67 ± 0.098 | 2.97 ± 0.07
33 | SEILSFDPVYTTVITVF [YML103C/NUP188] | 2.08 ± 0.059 | 2.27 ± 0.051 | 1.6 ± 0.11 | 1.62 ± 0.048
34 | SEIWDVSRGQSAVLLET [PRP8] | 2.83 ± 0.16 | 2.65 ± 0.15 | 3.12 ± 0.26 | 2.04 ± 0.091
35 | SELAPIEEHPTVVDAID [IRR1] | – | 3.62 ± 0.19 | 3.25 ± 0.11 | 3.05 ± 0.071
36 | SELLARDIFQEDEENSD [RGR1] | 3.48 ± 0.12 | 3.37 ± 0.12 | 3.02 ± 0.14 | 3.27 ± 0.17
37 | SEMLAKYSDILLKKATK [CDC53] | 2.62 ± 0.078 | 2.44 ± 0.12 | – | 2.47 ± 0.17
38 | SESGSKLNVDQFISSRQ [POP1] | 3.27 ± 0.058 | 3.37 ± 0.063 | 3.29 ± 0.055 | 3.21 ± 0.068
39 | SESKDSDKPSLPSAVDG [YLR335W/NUP2] | 3.41 ± 0.1 | 3.38 ± 0.1 | 3.28 ± 0.11 | 2.95 ± 0.15
40 | SEVGNCSGSGMGGVSAL [FAS2] | 3.15 ± 0.075 | 3.38 ± 0.064 | 3.29 ± 0.056 | 3.31 ± 0.05
41 | SEYSSEASNTPIEHQFN [PRE7] | 3.16 ± 0.078 | 3.21 ± 0.072 | 3 ± 0.036 | 3.3 ± 0.1
42 | SFLHVDDKLAYIRVNHA [POP8] | 2.67 ± 0.08 | 2.29 ± 0.068 | 2.21 ± 0.11 | 2.56 ± 0.061
43 | SFVHGVVGQLFQIDNDN [SMC2] | 3.11 ± 0.16 | 3.13 ± 0.12 | 3.13 ± 0.068 | 3.25 ± 0.13
44 | SFYRVEKIKKINYHQYI [SSN2] | 1.18 ± 0.081 | 1.36 ± 0.06 | 1.39 ± 0.2 | 1.62 ± 0.1
45 | SGDESNVISSKDWELEA [YDL116W/NUP84] | 3.45 ± 0.08 | 3.36 ± 0.052 | 3.45 ± 0.06 | 3.41 ± 0.066
46 | SGEKIDFLLSDWNKRFS [BRR2] | 2.37 ± 0.061 | 2.72 ± 0.055 | 2.88 ± 0.067 | 2.79 ± 0.056
47 | SGGEREIQRTMLELLNQ [RPT2] | 3.46 ± 0.15 | 3.74 ± 0.2 | – | 3.15 ± 0.18
48 | SGGSRNTSESLLVDIQK [SMC2] | 2.59 ± 0.14 | 2.22 ± 0.16 | 2.33 ± 0.12 | 1.73 ± 0.13
49 | SGKLRDYQVQGLNWLIS [ISW2] | 2.58 ± 0.07 | 2.71 ± 0.053 | 2.33 ± 0.065 | 2.85 ± 0.039
50 | SGSTEKAFKICEAAVEI [SIR3] | 2.97 ± 0.11 | 2.71 ± 0.11 | 2.84 ± 0.15 | 3.18 ± 0.16
51 | SGTSVFEVEMILMQQQM [SRP54] | 3.3 ± 0.084 | 3.23 ± 0.071 | 3.18 ± 0.07 | 3.22 ± 0.098
52 | SGVMDKSVLGDGKKHSV [RPO31] | 3.73 ± 0.21 | 3.71 ± 0.28 | 3.31 ± 0.2 | –
53 | SGVPRLKEILNVAKNMK [RPO21] | 1.23 ± 0.12 | 1.83 ± 0.12 | 1.32 ± 0.26 | 1.4 ± 0.082
